Assay [1] addresses DR1-restricted TCR HA1.7. Briefly: flow cytometry: HA1.7-transduced primary CD4+ T cells stained with PE DR1 dimer and anti-CD4.
The target of assay [2] is DR1-restricted TCR HA1.7. The assay is described as above. This is another data set of the same source.
Assay [3] concerns the target DR1-restricted TCR HA1.7. The experiment in a line: flow cytometry: TCR-transduced primary human T cells stained with PE class II dimer and anti-CD4. For orientation: Flow cytometry measures light scatter and fluorescence of single cells or particles in a stream.

This passage reports percent of cells in the dimer+ CD4+ quadrant results from US20220281949A1.

Consider “DR1^L114W/V143M dimer with the cognate peptide of TCR HA1.7 (peptide-MHC)”, for which the percent of cells in the dimer+ CD4+ quadrant in assay [1] turned out to be 1.5%.

Regarding “DR1^L114W/V143M+2reps dimer specific to Flu-HA306-318 (peptide-MHC)”, the percent of cells in the dimer+ CD4+ quadrant in assay [2] turned out to be 53%; in assay [3], 9.1%; in assay [1] it was 48.9%.
